Tests used:
[1] = target: T1, FASTK∆N1-75 (Homo sapiens, UniProt Q14296 76-549, del1-75); test: MST; 100 mM K+, no Na+; better than AU-rich mutant; MST: 1x PBS, 5% glycerol, 1 mM DTT, Tween-20 (0.05% in RNA stock), 20 nM RNA, 22 °C; RNA annealed in 50 mM Tris/HCl pH 7.5, 50 mM KCl (or LiCl), 50 mM NaCl; EMSA: same solutions, on ice; footprinting: 1x Structure Buffer, 37 °C; settings: protein: recombinant; tags: His6-SUMO cleaved; label: Cy5
T1 sequence: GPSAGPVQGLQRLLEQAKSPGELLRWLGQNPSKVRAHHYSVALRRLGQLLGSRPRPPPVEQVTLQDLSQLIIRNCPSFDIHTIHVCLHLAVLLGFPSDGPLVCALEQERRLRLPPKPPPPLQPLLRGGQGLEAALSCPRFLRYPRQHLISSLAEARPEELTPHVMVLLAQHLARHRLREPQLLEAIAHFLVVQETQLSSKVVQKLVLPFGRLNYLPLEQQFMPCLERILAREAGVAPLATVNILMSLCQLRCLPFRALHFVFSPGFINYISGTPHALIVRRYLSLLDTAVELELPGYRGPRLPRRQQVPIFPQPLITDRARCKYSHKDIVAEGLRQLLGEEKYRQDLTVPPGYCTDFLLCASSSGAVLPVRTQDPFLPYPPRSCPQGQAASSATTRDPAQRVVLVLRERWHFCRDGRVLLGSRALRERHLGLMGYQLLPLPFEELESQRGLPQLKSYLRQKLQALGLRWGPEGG

[2] = target: T1, FASTK∆N1-75; test: MST; MST: 1x PBS, 5% glycerol, 1 mM DTT, Tween-20 (0.05% in RNA stock), 20 nM RNA, 22 °C; RNA annealed in 50 mM Tris/HCl pH 7.5, 50 mM KCl (or LiCl), 50 mM NaCl; EMSA: same solutions, on ice; footprinting: 1x Structure Buffer, 37 °C; settings: protein: recombinant, tags: His6-SUMO cleaved
[3] = target: T1, FASTK∆N1-75; test: MST; K+ annealed; MST: 1x PBS, 5% glycerol, 1 mM DTT, Tween-20 (0.05% in RNA stock), 20 nM RNA, 22 °C; RNA annealed in 50 mM Tris/HCl pH 7.5, 50 mM KCl (or LiCl), 50 mM NaCl; EMSA: same solutions, on ice; footprinting: 1x Structure Buffer, 37 °C; settings: protein: recombinant, tags: His6-SUMO cleaved, label: Cy5
[4] = target: T1, FASTK∆N1-75; test: MST; same as unmutated oligo 5; MST: 1x PBS, 5% glycerol, 1 mM DTT, Tween-20 (0.05% in RNA stock), 20 nM RNA, 22 °C; RNA annealed in 50 mM Tris/HCl pH 7.5, 50 mM KCl (or LiCl), 50 mM NaCl; EMSA: same solutions, on ice; footprinting: 1x Structure Buffer, 37 °C; settings: protein: recombinant; tags: His6-SUMO cleaved; label: Cy5 body (CTP or UTP)
[5] = target: T2, FASTK∆N1-75 R249/R251 mutant (Homo sapiens, UniProt Q14296 76-549, R249A;R251A;del1-75); test: MST; MST: 1x PBS, 5% glycerol, 1 mM DTT, Tween-20 (0.05% in RNA stock), 20 nM RNA, 22 °C; RNA annealed in 50 mM Tris/HCl pH 7.5, 50 mM KCl (or LiCl), 50 mM NaCl; EMSA: same solutions, on ice; footprinting: 1x Structure Buffer, 37 °C; settings: protein: recombinant; tags: His6-SUMO cleaved; label: Cy5 body (CTP or UTP); 5' 32P in footprinting; predicted G4
T2 sequence: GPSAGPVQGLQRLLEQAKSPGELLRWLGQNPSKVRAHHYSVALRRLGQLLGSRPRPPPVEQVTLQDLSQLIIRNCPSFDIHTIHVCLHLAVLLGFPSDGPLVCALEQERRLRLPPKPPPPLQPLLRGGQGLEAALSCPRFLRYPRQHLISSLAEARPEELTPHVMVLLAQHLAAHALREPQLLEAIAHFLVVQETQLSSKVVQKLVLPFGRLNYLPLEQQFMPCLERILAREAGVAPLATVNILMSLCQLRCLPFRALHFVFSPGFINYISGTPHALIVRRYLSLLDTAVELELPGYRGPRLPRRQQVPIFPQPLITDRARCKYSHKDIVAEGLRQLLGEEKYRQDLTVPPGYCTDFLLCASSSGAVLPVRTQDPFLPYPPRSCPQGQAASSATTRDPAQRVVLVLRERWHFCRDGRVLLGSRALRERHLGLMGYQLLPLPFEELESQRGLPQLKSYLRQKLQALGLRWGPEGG

[6] = target: T1, FASTK∆N1-75; test: MST; same as unmutated oligo 10; MST: 1x PBS, 5% glycerol, 1 mM DTT, Tween-20 (0.05% in RNA stock), 20 nM RNA, 22 °C; RNA annealed in 50 mM Tris/HCl pH 7.5, 50 mM KCl (or LiCl), 50 mM NaCl; EMSA: same solutions, on ice; footprinting: 1x Structure Buffer, 37 °C; settings: protein: recombinant; tags: His6-SUMO cleaved; label: Cy5 body (CTP or UTP)

UUACCCUUACCCUUACCCUUACCC (ssRNA) [TERRA C-rich mutant]: binds [1].

With UUUUCUGUUUUUUC (ssRNA) [U-rich short RNA] the Kd ([2]; label: Cy5) was 63.2 nM.

UUAGAGUUAGUGUUAGAGUUAGUG (ssRNA) [TERRA AU-rich mutant] gave a Kd [3] of 6.4 nM.

Binder CCCUCUGUCCCCUC (ssRNA) [C-rich short RNA] has a Kd ([2]; label: Cy5) of 212 nM.

B1: ND6 oligo 5 G4kill mutant (ssRNA)
RNA: GAGUGGUCAGAGUUGAUUCGUGAGGAUCCUAUUGGUGCGGAGGCUUUGUAUGAUUAUGUGCGUUGAUUAGUAGUAGUUACUGGUUGAACAUUGUUUGUUGGUGUAUAUAUUGUAAUUGAGAUUGC
B1: binds [4].

B2: ND6 oligo 5 (structured_RNA)
RNA: GAGGGGUCAGGGUUGAUUCGGGAGGAUCCUAUUGGUGCGGGGGCUUUGUAUGAUUAUGGGCGUUGAUUAGUAGUAGUUACUGGUUGAACAUUGUUUGUUGGUGUAUAUAUUGUAAUUGAGAUUGC
In the case of B2, the Kd ([2]; label: Cy5 body (CTP or UTP), 5' 32P in footprinting, predicted G4) is reported as 25.5 nM and the binding signal [5] is reported as 5 fold decrease vs wild type.

For UUAGGGUUAGGGUUAGGGUUAGGG (structured_RNA) [TERRA], the Kd ([3]; G4 intramolecular in K+) was 2.4 nM.

Work on AAAUCUGUAAAAUC (ssRNA) [A-rich short RNA] yielded a Kd ([2]; label: Cy5) of 78.4 nM.

Binder GGGUCUGUGGGGUC (ssRNA) [G-rich short RNA (internal loop strand 2)] has a Kd ([2]; label: Cy5) of 2.7 nM.

B3: ND6 oligo 10 G4kill mutant (ssRNA)
RNA: GGAGGAUUGUUGUUUGGAAGGUGGAUGCGGAGGAAAUGUUGUUAGUAAUGAGAAAUCCUGCGAAUAGGCUUCCGG
B3: binds [6].

B4: ND6 oligo 10 (structured_RNA)
RNA: GGGGGAUUGUUGUUUGGAAGGGGGAUGCGGGGGAAAUGUUGUUAGUAAUGAGAAAUCCUGCGAAUAGGCUUCCGG
With B4 the Kd ([2]; label: Cy5 body (CTP or UTP), predicted G4) was 18.5 nM.

Reference: article PMC12871924, “Human FASTK preferentially binds single‐stranded and G‐rich RNA”
